Laboratory results reported in patent publication US20240409647A1 (SINOMAB BIOSCIENCE, published 2024).

Experiments:
[1] = biological target: T1, human IL-17RB protein (recombinant, R&D systems) (human); assay: BLI (Octet RED96), SM17 captured via anti-human Fab CH1, IL17RB in solution; trial 2
T1 construct: Bought protein; also called hIL17RB
T1 sequence (Q9NRM6 whole entry, looked up): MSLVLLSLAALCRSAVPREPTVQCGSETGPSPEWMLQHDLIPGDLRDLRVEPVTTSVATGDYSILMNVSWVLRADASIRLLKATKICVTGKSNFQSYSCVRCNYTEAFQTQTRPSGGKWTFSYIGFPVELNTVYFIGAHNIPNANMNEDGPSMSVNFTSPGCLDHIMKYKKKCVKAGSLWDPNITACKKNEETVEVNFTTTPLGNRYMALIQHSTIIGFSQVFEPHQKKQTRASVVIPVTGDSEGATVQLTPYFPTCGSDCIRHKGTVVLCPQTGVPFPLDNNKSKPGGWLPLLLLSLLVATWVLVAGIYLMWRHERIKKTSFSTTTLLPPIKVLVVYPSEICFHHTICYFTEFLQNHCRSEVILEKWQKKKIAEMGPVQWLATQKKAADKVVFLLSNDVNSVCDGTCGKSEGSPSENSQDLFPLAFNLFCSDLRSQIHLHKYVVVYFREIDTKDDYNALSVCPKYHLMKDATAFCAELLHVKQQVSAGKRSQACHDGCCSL
Text: (§1) Irrelevant antibody (SM03, anti-human CD22 chimeric IgG1 antibody, SinoMab BioScience Limited) was used as the control reference.

[2] = biological target: T2, cynomolgus monkey IL-17RB protein (recombinant, R&D systems) (cynomolgus monkey, UniProt A0A2K5TUK1 18-289); assay: as above
T2 construct: also called cynomolgus IL17RB; Cyno-IL17RB
T2 sequence: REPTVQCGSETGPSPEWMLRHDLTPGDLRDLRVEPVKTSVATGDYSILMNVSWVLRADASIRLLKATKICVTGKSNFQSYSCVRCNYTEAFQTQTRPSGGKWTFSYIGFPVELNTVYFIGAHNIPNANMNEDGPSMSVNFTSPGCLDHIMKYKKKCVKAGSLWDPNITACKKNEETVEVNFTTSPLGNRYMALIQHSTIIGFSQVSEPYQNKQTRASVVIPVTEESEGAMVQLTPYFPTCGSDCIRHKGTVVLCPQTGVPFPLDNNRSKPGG
Text: as §1

[3] = biological target: T1, human IL-17RB protein (recombinant, R&D …); assay: ELISA, coated receptor; SM17 at 0.016 µg/mL; well 2
[4] = biological target: T3, human IL-17 receptor subunit D (human, UniProt Q8NFM7 28-299, limits assumed); assay: as above
T3 construct: also called IL17RD; hIL 17RD
T3 sequence (looked up): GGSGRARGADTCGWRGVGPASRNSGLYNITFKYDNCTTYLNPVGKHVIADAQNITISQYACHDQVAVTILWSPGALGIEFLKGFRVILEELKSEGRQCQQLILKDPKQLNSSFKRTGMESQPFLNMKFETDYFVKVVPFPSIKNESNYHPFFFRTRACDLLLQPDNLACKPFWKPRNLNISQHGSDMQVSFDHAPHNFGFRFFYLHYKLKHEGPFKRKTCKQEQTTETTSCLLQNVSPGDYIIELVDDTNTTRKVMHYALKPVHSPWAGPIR

[5] = biological target: T4, human IL-17 receptor subunit E (human, UniProt Q8NFR9 24-454, limits assumed); assay: as above
T4 construct: also called hIL17RE
T4 sequence (looked up): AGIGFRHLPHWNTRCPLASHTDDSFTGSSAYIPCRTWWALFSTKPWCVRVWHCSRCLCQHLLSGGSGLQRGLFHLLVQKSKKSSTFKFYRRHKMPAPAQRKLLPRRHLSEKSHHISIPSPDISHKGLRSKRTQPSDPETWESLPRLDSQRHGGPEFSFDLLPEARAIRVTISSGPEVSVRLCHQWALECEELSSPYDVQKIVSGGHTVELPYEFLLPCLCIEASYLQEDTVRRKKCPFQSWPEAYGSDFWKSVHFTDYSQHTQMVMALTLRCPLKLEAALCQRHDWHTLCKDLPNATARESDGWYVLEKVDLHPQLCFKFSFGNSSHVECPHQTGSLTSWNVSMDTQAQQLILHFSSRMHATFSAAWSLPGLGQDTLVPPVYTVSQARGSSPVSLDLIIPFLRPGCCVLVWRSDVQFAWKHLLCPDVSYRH

[6] = biological target: T5, human IL-17 receptor subunit C (human, UniProt Q8NAC3-2 21-467, limits assumed); assay: as above
T5 construct: also called IL17RC; hIL17RC
T5 sequence (looked up): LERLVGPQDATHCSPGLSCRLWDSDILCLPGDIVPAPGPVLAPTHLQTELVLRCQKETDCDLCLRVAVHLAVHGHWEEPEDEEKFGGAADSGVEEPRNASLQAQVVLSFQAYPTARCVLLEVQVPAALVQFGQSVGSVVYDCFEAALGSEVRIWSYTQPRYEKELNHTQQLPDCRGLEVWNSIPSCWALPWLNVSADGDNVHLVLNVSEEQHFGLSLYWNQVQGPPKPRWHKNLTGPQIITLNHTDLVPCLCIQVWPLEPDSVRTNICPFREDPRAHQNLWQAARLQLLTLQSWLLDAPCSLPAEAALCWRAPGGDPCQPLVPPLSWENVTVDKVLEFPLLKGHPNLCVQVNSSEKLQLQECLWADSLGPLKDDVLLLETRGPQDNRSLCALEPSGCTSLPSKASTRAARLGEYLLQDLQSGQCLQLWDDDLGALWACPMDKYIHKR

[7] = biological target: T6, human IL-17 receptor subunit A (human, UniProt Q96F46 33-320); assay: as above
T6 construct: also called IL17RA; hIL17RA

B1: SM17 (antibody, human IgG4 S228P, kappa, V domains shown)
VH: QVQLVQSGAEVKKPGASVKVSCKASGYTFISYWMNWVRQAPGQGLEWMGRIDPYDSEIQYNQKFKDRVTMTRDTSISTAYMELSRLRSDDTAVYYCARSGGFDWFAYWGQGTLVTVSS
VL: DIQMTQSPSSLSASVGDRVTITCRASENINSNLAWYQQKPGKAPKLLLYDVTNLADGVPSRFSGSGSGTDYTLTISSLQPEDFATYYCQHFWGPPYTFGGGTKVEIKR
notes: other paragraphs and claim 15 call the same entries VH and VL; also called humanized anti-IL17RB monoclonal antibody
**Q.** For B1, which Kd [1] is on record?
**A.** 0.546 nM

**Q.** What about the koff [1] of the same binder?
**A.** 9.98e-05 s⁻¹

**Q.** And the kon [1]?
**A.** 183000 M⁻¹ s⁻¹

**Q.** And the Kd [2]?
**A.** 5.11 nM

**Q.** What about the koff [2] of the same binder?
**A.** 0.000215 s⁻¹

**Q.** And the kon [2]?
**A.** 42100 M⁻¹ s⁻¹

**Q.** What about the “OD 450 nm Absorption” value [3] of the same binder?
**A.** 0.3 OD450

**Q.** What about the “OD 450 nm Absorption” value [4] of the same binder?
**A.** 0.02 OD450

**Q.** What about the “OD 450 nm Absorption” value [5] of the same binder?
**A.** -0.04 OD450

**Q.** What about the “OD 450 nm Absorption” value [6] of the same binder?
**A.** 0.02 OD450

**Q.** And the “OD 450 nm Absorption” value [7]?
**A.** -0.04 OD450
